The source of these data is patent US20220332804A1 (CSL INNOVATION, published 2022).

Numbering of substitutions follows the chain as printed.

Holding throughout (assay): SPR, KD relative to WT C2;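 further: biacore SPR at 37 °C, anti-C2 mAbs captured on anti-human IgG chips with alanine or serine point mutants of C2 as analyte, KD from 1:1 fit compared with wild-type C2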
(In general: In SPR one partner is held on a chip, and binding of the other changes the refractive index at the surface.)

For assay [1], the target named is T1, human C2 N424A (human, UniProt P06681 21-752).
T1 sequence: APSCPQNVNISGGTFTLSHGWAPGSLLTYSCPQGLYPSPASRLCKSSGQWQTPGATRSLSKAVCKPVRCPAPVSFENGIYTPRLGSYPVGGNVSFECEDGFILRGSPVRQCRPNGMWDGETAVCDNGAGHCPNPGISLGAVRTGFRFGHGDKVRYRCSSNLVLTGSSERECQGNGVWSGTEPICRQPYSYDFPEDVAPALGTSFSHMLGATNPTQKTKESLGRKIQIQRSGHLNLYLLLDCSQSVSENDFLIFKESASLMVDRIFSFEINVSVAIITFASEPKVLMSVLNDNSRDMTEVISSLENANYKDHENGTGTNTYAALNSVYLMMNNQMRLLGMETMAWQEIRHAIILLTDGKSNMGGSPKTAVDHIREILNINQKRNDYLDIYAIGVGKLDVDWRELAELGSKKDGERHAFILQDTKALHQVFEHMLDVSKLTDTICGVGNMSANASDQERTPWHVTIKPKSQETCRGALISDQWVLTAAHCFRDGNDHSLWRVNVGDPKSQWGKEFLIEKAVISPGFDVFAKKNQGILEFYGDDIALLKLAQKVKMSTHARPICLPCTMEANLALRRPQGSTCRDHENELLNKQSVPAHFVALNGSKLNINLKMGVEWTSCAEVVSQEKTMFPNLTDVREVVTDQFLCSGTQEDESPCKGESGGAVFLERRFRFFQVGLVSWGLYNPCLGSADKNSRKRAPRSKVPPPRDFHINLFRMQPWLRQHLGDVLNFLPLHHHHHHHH

Assay [2] concerns the target T2, human C2 A436S (human, UniProt P06681 21-752).
T2 sequence: T1 sequence with A404N, A416S

Assay [3] has as its target T3, human C2 D454A (human, UniProt P06681 21-752).
T3 sequence: T1 sequence with A404N, D434A

Assay [4] has as its target T4, human C2 S469A (human, UniProt P06681 21-752).
T4 sequence: T1 sequence with A404N, S449A

B1: RF16-242 (antibody, human IgG4 S228P, lambda, V domains shown)
VH: EVQLLQSGAEVKKPGESLKISCKGSGYSFTSYWIGWVRQMPGKGLEWMGIIYPGDSDTRYSPSFQGQVTISADKSISTAYLQWSSLKASDTAMYYCARRGHYGDYFDYWGQGTLVTVSS
VL: SYELTQPPSVSVSPGQTARITCSGDALPKKYAYWYHQKSGQAPVLVIYEDRRRPSEIPERFSGSSSGTMATLTITGAQVEDEGVYFCYSRDRAGNQRVFGGGTQLTVLG
notes: pH-dependent anti-C2 antibody from a phage display library
For the molecule B1, the Fold diff in assay [1] was 1 fold; in assay [2], 1 fold; in assay [3], 5 fold; in assay [4], 3 fold.
